Test results taken from publication PMC4644235 (Cell, 2015).

B1: Sem1 (natural protein)
chain: MSTDVAAAQAQSKIDLTKKKNEEINKKSLEEDDEFEDFPIDTWANGETIKSNAVTQTNIWEENWDDVEVDDDFTNELKAELDRYKRENQ
B2: Thp1(170-455) (domain or fragment)
chain: GKQRILLYLVNKLNNIYFRIESPQLCSNIFKNFQPKSMLAHFNEYQLDQQIEYRYLLGRYYLLNSQVHNAFVQFNEAFQSLLNLPLTNQAITRNGTRILNYMIPTGLILGKMVKWGPLRPFLSQETIDNWSVLYKHVRYGNIQGVSLWLRQNERHLCARQLLIVLLEKLPMVTYRNLIKTVIKSWTTEWGQNKLPYSLIERVLQLSIGPTFEDPGAQEITIYNGIHSPKNVENVLVTLINLGLLRANCFPQLQLCVVKKTTMIQEIVPPVNERITKMFPAHSHVLW

Tests used:
[1] = target: B2; assay: crystal structure
[2] = target: T1, Sac3(222-572) (S. cerevisiae, UniProt P46674 222-572); assay: crystal structure
T1 sequence: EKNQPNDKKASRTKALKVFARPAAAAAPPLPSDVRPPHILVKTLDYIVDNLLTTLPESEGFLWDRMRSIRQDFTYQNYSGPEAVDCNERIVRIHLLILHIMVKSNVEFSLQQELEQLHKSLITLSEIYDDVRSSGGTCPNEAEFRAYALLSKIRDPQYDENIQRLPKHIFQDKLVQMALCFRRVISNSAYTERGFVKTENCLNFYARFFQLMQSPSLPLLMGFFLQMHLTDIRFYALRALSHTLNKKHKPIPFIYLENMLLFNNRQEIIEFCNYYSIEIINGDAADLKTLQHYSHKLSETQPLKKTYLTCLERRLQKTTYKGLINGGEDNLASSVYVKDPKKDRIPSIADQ

Binder	binding result [1]	binding result [2]
B1	binds	
B2		binds
